Test system: MS2 coat protein
Assay: apparent KD of MS2 coat protein; designed switch direction (-1 OFF switch, 1 ON switch): -1; higher = weaker reporter binding
How it was run: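 Each step of the titration lasted 0.8–1.5 h at the lowest concentration and 10–20 min at the highest. The protein, SNAP-549-labelled MS2 coat protein, went from 0.7 or 1.5 nM doubling to 3 µM over RNA switches transcribed on Illumina chips by stalled E. coli RNA polymerase. Normalised cluster fluorescence was curve-fitted, and the per-design median over clusters is given as apparent KD.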

[1] = input ligand: microRNA oligo, concentration not stated
[2] = Eterna round: R95, input ligand: FMN 200 uM
[3] = Eterna round: R95, input ligand: microRNA oligo, concentration not stated
[4] = Eterna round: R95, input ligand: none

| Sequence | apparent KD of MS2 coat protein (input ligand: FMN 200 uM) [nM] | apparent KD of MS2 coat protein (input ligand: none) [nM] | apparent KD of MS2 coat protein [1] [nM] | apparent KD of MS2 coat protein [2] [nM] | apparent KD of MS2 coat protein [3] [nM] | apparent KD of MS2 coat protein [4] [nM] |
| --- | --- | --- | --- | --- | --- | --- |
| AAGAAUCUAGGAUAUUAGCGGGCCUACAUGAGGAUCACCCAUGUCGUGUCGCGGGUAUGCUGAGAAGGAGAGCACA [EX5 B.5] (Eterna round: R97, puzzle: Exclusion 5) | 16.3 | 16.3 |  |  |  |  |
| ACACAUGAGGAUCACCCAUGUCGGGUCAUAUCCUUCGAGGGCUAGGAUAUCGGGACUACGAAGCCCGAGAAGGAGCACUCGUUA [Ceorsobi] (Eterna round: R96, puzzle: Exclusion NG 3) | 251 | 105 | 66.3 |  |  |  |
| UCUUAGUCAGGAUAUACAUGAGGAUCACCCAUGUAAAAUUUUAAUUUAAUUUUAAGGUGUAGAAGGGACCACCU [Ex3 #18] (Eterna round: R97, puzzle: Exclusion 3) | 19.2 | 23.4 |  |  |  |  |
| UAGGAUACCGUCAGGAUAUAGAGUUCCCACAGACUCUAGAAGGGACAUGAGGAUCACCCAUGUCGUGCAACGUU [Eternabot (L1) Solution 54] (Eterna round: R97, puzzle: Brourd's mod of Exclusion 4) | 20.2 | 16.2 |  |  |  |  |
| UACAUGAGGAUCACCCAUGUUUUGUCGUGUAUGGUAUUUAUCUAGGAUAUCAAUGUAUUUAAUUAUGAGAAGGAGAAUAUUAAU [JMF's solution 45] (Eterna round: R96, puzzle: Exclusion NG 3) | 45.4 | 44.6 | 29.6 |  |  |  |
| AGGAAUGAAGGAUAUACAUGAGGAUCACCCAUGUAAAACAAGAGAUUUGAUGUAUAAUGUAGAAGGUCAAGAAG [JR_Exclusion3_Sub003] (puzzle: Exclusion 3) |  |  |  | 25.2 | 30.5 | 35.5 |
| CUUGAGCAGGUAGGAUAUACGAUGUGUCGGCGAGUAGAAGGACCUGCGAUCCACUUGAGGAUCACCCAAGUUCGCAGGAGAACA [Mutated MS2 EX1.18] (Eterna round: R96, puzzle: Exclusion NG 1) | 103 | 33.4 | 22 |  |  |  |
| CUGAGCAGACGGAGAUCCAACAUGAGGAUCACCCAUGUCUCAAAAGCUUUCUGCUCGUCUUAUCCUCCUCUGUUCUC [Engeonrati] (puzzle: Sensor v3, turn-off variant 1) |  |  |  | 129 | 205 | 151 |
| AGUACUAUGCGUGCUGACAUGCGUAGUGCAGCAGGUGUAACAUGAGGAUCACCCAUGUCCUCAUUUGCUCGUCUUAA [Mat - Sensor v3 - Turn-off var 2 - D13] (puzzle: Sensor v3, turn-off variant 2) |  |  |  | 107 | 224 | 129 |
| CUGUAACGAGCGUGAGCCGACAUGAGGAUCACCCAUGUGCUCGUCUUAUAACGUACUGUCACGUUAGUGAUAGUGCG [Sensor v3, turn-off variant 1 (MOD of Eli's v1-13 v.2)] (puzzle: Sensor v3, turn-off variant 1) |  |  |  | 45.9 | 74.7 | 37.3 |
| UUUGUAUAGCAAGGAUAUGUUUAAUUAUAGUUGCCUCAUACAUGAGGAUCACCCAUGUUUUACUUACAGAAGGUGCAAUGAUUU [JR_ExcNG2_Sub035] (Eterna round: R96, puzzle: Exclusion NG 2) |  |  | 242 |  |  |  |
| UUUUUAUUUUUUUAUUUUGACAUGAGGAUCACCCAUGUAACGAGCAGAUCUUCAUGCAAGCUUUUUGCUCGUCUUAU [Sensor v3 - Turn-off variant 1 - 41] (puzzle: Sensor v3, turn-off variant 1) |  |  |  | 69.1 | 15.5 | 95.6 |
| GUCACAUGGGUGUAGAAUCACAUGAGGAUCACCCAUGUGACUAACAAGCUUUUUGCUCGUCUUAUGUCUAUGUGAAU [Stov1/17-A2] (Eterna round: R97, puzzle: Sensor, turn-off variant 1) | 23.3 | 37.2 |  |  |  |  |
| UCAUCGCAAGGAUAUACUUGCGGUGAUGUUCGAAUUCUUCUACUUGAGGAUCACCCAAGUAGAAGGUGCGAUGA [jl-ex2.4.63 ViennaUCT mod] (Eterna round: R97, puzzle: Exclusion 2) | 13.2 | 13.5 |  |  |  |  |
| UUCCUCAUAACAUGAGGAUCACCCAUGUAUUAAUAGAUAACUGAGGAUAUACUAAUAAUGUUUAUGUAGAAGGCAGAUACAGAU [JR_ExcNG3_Sub014] (Eterna round: R96, puzzle: Exclusion NG 3) |  |  | 40 |  |  |  |
| AACAGUGUAGGAUAUACAGGGCAAACGGCACCCGUCUCCGGACAUGAGGAUCACCCAUGUAGAAGGACACCUAU [EX2 C.16] (Eterna round: R97, puzzle: Exclusion 2) | 246 | 47.4 |  |  |  |  |
| AUAUUACAUGAGGAUCACCCAUGUGAGGAUAUGGAGAGAGACCGCCCGGUCGCGUACACCAGAAGGCGCAGGCG [1st #60] (Eterna round: R97, puzzle: Exclusion 1) | 19.8 | 21.2 |  |  |  |  |
| CCCGUGUAAGGAUAUCGUUCACUUGACAAAAGUCAAGUGAACGAGAAGGUACAUGAGGAUCACCCAUGUACGGG [-33.8, -33.4 kcal, A 32%] (Eterna round: R97, puzzle: Exclusion 4) | 418 | 571 |  |  |  |  |
| UGCAUGCUAGGAUAUACGGGACAUUAGGGUUCGUUGUAUGGACAUGAGGAUCACCCAUGUAGAAGGAGCGUGCU [Mod5 of JL-ex2-2.15 mat747 mod] (puzzle: Exclusion 2) |  |  |  |  | 26 |  |
| GCUCCUCCUGUUAGGAUAUGCUUCGGGCUUCCGCAGCAGAAGGAACAUGAGGAUCACCCAUGUCAAAUAAAAUC [Brourd's mod of Ex.4 - Mod Inxebexe (Scored 85 R3.2)] (Eterna round: R97, puzzle: Brourd's mod of Exclusion 4) | 223 | 76.2 |  |  |  |  |
| AAAGUGCUGCGAGGAUAUACAUGAGGAUCACCCAUGUGGAUGUCUGAGGCAAAGCCUCAGACAAUGUAGAAGGCGCAGUACUAA [Mat - Exclusion NG 2 - Mod of JL - D56] (Eterna round: R96, puzzle: Exclusion NG 2) | 87.3 | 27 | 18.2 |  |  |  |
| GGUCGGCGAGGAUAUACAUGAGGAUCACCCAUGUGAUAGAUUAUCGCGAAAGCGUAAUGUAGAAGGCGCUGACG [jl-ex3-4.10 jl mod] (Eterna round: R97, puzzle: Exclusion 3) | 1280 | 40.7 |  |  |  |  |
| AGAUCUAGGACAGGAUAUAUAGAUGGCUUCAUCGAAGAUGAAGCCAUUACAUGAGGAUCACCCAUGUAGAAGGGUCCUAGAUCA [Omei Exc(NG) 2Av7] (Eterna round: R96, puzzle: Exclusion NG 2) | 11.2 | 16.1 | 14.3 |  |  |  |
| GAAUAGCAAGCGAGAUCCCACAUGAGGAUCACCCAUGUGCUCGUCUUAUAAAGUACUGUGACGAGAGUCACGGUACA [Mat - Sensor, turn-off var - Eli Mod - D14] (Eterna round: R97, puzzle: Sensor, turn-off variant 1) | 14.3 | 16.1 |  |  |  |  |
